Here are results for 6 molecules from patent US20210269532A1 (SYMPHOGEN A S, published 2021).

T1: human AXL extracellular domain transiently expressed on CHO-S cells (human, UniProt P30530 26-451)
T1 construct: also called human AXL ECD on CHO-S cells
T1 sequence: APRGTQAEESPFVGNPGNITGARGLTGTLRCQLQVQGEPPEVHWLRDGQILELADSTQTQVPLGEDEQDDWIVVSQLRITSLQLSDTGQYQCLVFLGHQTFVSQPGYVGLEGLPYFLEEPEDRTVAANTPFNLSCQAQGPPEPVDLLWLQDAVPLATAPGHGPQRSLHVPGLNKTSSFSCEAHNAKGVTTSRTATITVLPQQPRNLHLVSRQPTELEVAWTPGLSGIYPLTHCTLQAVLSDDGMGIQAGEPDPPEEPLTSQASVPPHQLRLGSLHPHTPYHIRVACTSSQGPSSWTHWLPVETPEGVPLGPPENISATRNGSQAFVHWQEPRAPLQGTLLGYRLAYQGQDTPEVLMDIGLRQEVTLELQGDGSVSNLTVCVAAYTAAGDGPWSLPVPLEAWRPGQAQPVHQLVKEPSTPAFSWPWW

T2: His-tagged human AXL extracellular domain (recombinant) (human, UniProt P30530 26-451)
T2 construct: treated as one molecule; also called human AXL ECD; AXL-His ECD; not shown: His tag
T2 sequence: T1 sequence

B1: 23203_3 (antibody, human IgG1, kappa, L234A L235A, V domains shown)
VH: QVQLQQWGAGLLKPSETLSLTCTVSGGSFSGYYWTWIRQPPGKGLEWIGEINHAGSTNYNPSLKSRVTISVDTSKNQFSLKLSSVTAADTAVYYCSSREYSSRWHFDYWGQGTLVTVSS
VL: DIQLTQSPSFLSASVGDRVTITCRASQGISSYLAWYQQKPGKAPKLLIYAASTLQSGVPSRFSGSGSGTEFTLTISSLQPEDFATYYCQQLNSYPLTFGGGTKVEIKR
notes: Fully human IgG1-LALA, kappa
B2: 23203_2 (antibody, human IgG1, kappa, L234A L235A, V domains shown)
VH: B1 VH with T23A, S25Y, A54S
VL: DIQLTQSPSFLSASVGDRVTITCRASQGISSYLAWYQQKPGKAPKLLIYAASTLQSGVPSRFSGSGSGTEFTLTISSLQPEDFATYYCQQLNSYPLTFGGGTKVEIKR
notes: Fully human IgG1-LALA, kappa
B3: 23203_4 (antibody, human IgG1, kappa, L234A L235A, V domains shown)
VH: B1 VH with T23A, S25Y
VL: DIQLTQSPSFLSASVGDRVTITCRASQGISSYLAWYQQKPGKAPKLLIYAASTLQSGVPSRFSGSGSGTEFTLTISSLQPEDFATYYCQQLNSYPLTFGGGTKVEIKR
notes: Fully human IgG1-LALA, kappa
B4: 23203_1 (antibody, human IgG1, kappa, L234A L235A, V domains shown)
VH: B1 VH with Q6E, W7S, A9P, L12V, T35S
VL: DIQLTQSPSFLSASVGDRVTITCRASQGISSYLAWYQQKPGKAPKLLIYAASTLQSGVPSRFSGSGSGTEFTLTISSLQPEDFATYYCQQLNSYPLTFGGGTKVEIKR
notes: Fully human IgG1-LALA, kappa
B5: 22883 (antibody, human IgG1, kappa, L234A L235A, V domains shown)
VH: EVQLVESGGGLVQPGGSLRLSCAASGFTFSSYAMSWVRQAPGKGLEWVSAISGGGDYTYYADSVKGRFTISRDNSKNTLYLQMNSLRAEDTAVYYCAKEEWELRGPFRYWGQGTLVTVSS
VL: DIQMTQSPSTLSASVGDRVTITCRASQSISSWLAWYQQKPGKAPKFLIYKASSLESGVPSRFSGSGSGTEFTLTISSLQPDDFATYYCQQYNGFSWTFGQGTKVEIKR
notes: Fully human IgG1-LALA, kappa
B6: 22995 (antibody, human IgG1, kappa, L234A L235A, V domains shown)
VH: EVQLVESGGSLVQPGGSLRLSCAASGFTFSSSAMSWVRQAPGKGLEWVSTISGSDSSTYDADSVKGRSTISRDNSKNTLYLQMNSLRADDTAVYYCAKKGAYCSGTICYDPFDYWGQGTLVTVSS
VL: DIVLTQSPVLAVSLGQRATISCRASQSVSISSINLMHWYQQKPGQQPKLLIYRASNLASGIPARFSGSGSGTDFTLTIDPVQADDIAAYYCQQSRESPLTFGGGTKVEIKR
notes: Fully human IgG1-LALA, kappa

Changes are numbered by the printed parent chain.

For the first test, the target named is T3, cynomolgus AXL extracellular domain transiently expressed on CHO-S cells (cynomolgus).
T3 construct: extracellular domain; also called cynomolgus AXL ECD on CHO-S cells
Put plainly: flow cytometry, serial dilution on CHO-S cells transiently expressing cynomolgus AXL ECD, AF647 anti-human IgG secondary, GeoMean (RL1-H). How it is done:
(§1) Six anti-human AXL antibodies and reference antibody analogues were evaluated by flow cytometry for in vitro binding to human or cynomolgus AXL extracellular domain transiently expressed on CHO-S cells. For comparison, reference antibody analogues were included in the evaluation. All antibodies were incubated in serial dilutions together with the transiently transfected CHO-S cells for 30 min at 4° C. Following two washing steps, the cells were incubated with AF647-conjugated secondary anti-human IgG (H+L) antibody for 30 min at 4° C. A final washing step was done prior to acquisition of the cells on an iQue Plus screener. Results were calculated by GrafPad Prism software.
Background: A flow cytometer gives signals particle by particle.
As to B1, the 50% effective concentration (EC50 (read off the curve)) (as a rule, the concentration that produces a half-maximal response) was approximately 0.02 µg/mL.

On to B2, for which the “EC50 (read off the curve)” value was approximately 0.02 µg/mL.

For B3, the concentration giving a half-maximal response (EC50 (read off the curve)) is approximately 0.02 µg/mL.

On to B4, for which the “EC50 (read off the curve)” value is approximately 0.02 µg/mL.

As for B5, the “EC50 (read off the curve)” value was approximately 0.05 µg/mL.

On to B6, for which the “EC50 (read off the curve)” value is approximately 0.4 µg/mL.

A further test addresses T1, human AXL extracellular domain …. Put plainly: flow cytometry, serial dilution on CHO-S cells transiently expressing human AXL ECD, AF647 anti-human IgG secondary, GeoMean (RL1-H). The procedure: as §1
As to B1, the “EC50 (read off the curve)” value was approximately 0.02 µg/mL.

For the molecule B2, the “EC50 (read off the curve)” value is approximately 0.02 µg/mL.

Take B3: the concentration for a half-maximal effect (EC50 (read off the curve)) was approximately 0.02 µg/mL.

Turning to B4, the “EC50 (read off the curve)” value was approximately 0.02 µg/mL.

As for B5, the “EC50 (read off the curve)” value was approximately 0.07 µg/mL.

For B6, the “EC50 (read off the curve)” value was approximately 0.007 µg/mL.

The next test has as its target T2, His-tagged human AXL extracellular …. The test can be described thus: SPR (IBIS MX96), antibody captured, monovalent His-tagged AXL ECD in solution, 1:1 fit. The procedure:
(§2) The kinetic binding analysis was performed by surface plasmon resonance (SPR), using a Continuous Flow Microspotter (CFM, Wasatch Microfluidics, Salt Lake City, US) combined with an IBIS MX96 SPR instrument (IBIS Technologies, The Netherlands).
(§3) His-tagged human and cynomolgus AXL ECD were expressed in Expi293F cells and purified by Ni-NTA chromatography. Binding kinetics were measured under monovalent antigen conditions by immobilizing anti-AXL antibodies and keeping the monovalent AXL antigen in solution. Antibodies were captured onto a G-a-hu-IgG Fc SensEye® (Ssens BV, The Netherlands) for 15 minutes using a Continuous Flow Microspotter (CFM, Wasatch Microfluidics, Salt Lake City, US). After spotting, the SensEye® was positioned in the IBIS MX96 biosensor and captured proteins were fixed to the surface using FixIT kit (Ssens BV, The Netherlands). Kinetic analysis was performed by applying kinetic titration series (Karlsson et al., Anal Biochem. 349(1):136-47 (2006)), with antigen injections at increasing concentrations from 0.14 nM to 100 nM. Antigen association and dissociation was performed for 15 minutes. After each antigen injection series, the surface was regenerated by 100 mM H₃PO₄, pH 3 regeneration buffer. The recorded binding responses were fitted to a simple Langmuir 1:1 binding model with Scrubber 2 software for calculation of the on-rate (kₒₙ or ka), off-rate (koff or kd) and affinity (KD) constants.
In the case of B1, the Kd – broadly, a measure of binding affinity in units of concentration – came to 15 nM; the koff (usually the first-order rate constant of dissociation) was determined as 0.0016 s⁻¹; the kon (in general, the second-order rate constant of association) came out at 110000 M⁻¹ s⁻¹.

For B2, the Kd worked out at 11 nM, the koff worked out at 0.0016 s⁻¹ and the kon came out at 140000 M⁻¹ s⁻¹.

Take B3: the dissociation constant (Kd) is 25 nM, the off-rate (koff) was found to be 0.0023 s⁻¹ and the kon was found to be 90000 M⁻¹ s⁻¹.

Regarding B4, the Kd was determined as 15 nM, the koff was 0.0021 s⁻¹ and the kon worked out at 140000 M⁻¹ s⁻¹.

Consider B5, for which the equilibrium dissociation constant (Kd) worked out at 9.6 nM, the koff is 0.00031 s⁻¹ and the kon stood at 32000 M⁻¹ s⁻¹.

In the case of B6, the Kd worked out at 0.69 nM, the off-rate (koff) worked out at 0.00057 s⁻¹ and the kon came to 820000 M⁻¹ s⁻¹.

The target in a further test is T4, His-tagged cynomolgus AXL extracellular domain (recombinant) (cynomolgus).
T4 construct: extracellular domain; Expressed in Expi293F cells, purified by Ni-NTA; also called cynomolgus AXL ECD
The test is described as above. The procedure:
as §2, §3
As for B1, the equilibrium dissociation constant (Kd) was 13 nM, the koff is 0.0018 s⁻¹ and the kon was 140000 M⁻¹ s⁻¹.

Turning to B2, the Kd stood at 15 nM, the koff was 0.0016 s⁻¹ and the on-rate constant (kon) worked out at 110000 M⁻¹ s⁻¹.

On to B3, for which the Kd came out at 15 nM, the koff was 0.0021 s⁻¹ and the kon is 150000 M⁻¹ s⁻¹.

Regarding B4, the Kd worked out at 13 nM, the koff is 0.0024 s⁻¹ and the kon amounted to 180000 M⁻¹ s⁻¹.

As for B5, the Kd amounted to 7.2 nM, the off-rate constant (koff) was determined as 0.0002 s⁻¹ and the kon was 28000 M⁻¹ s⁻¹.

In the case of B6, the Kd was 80 nM, the koff came out at 0.0011 s⁻¹ and the kon worked out at 14000 M⁻¹ s⁻¹.
